The text below walks through data of patent US11028167 (CENTIVAX, dated 2021).

B1: COVID19_P06_G10 (scFv, V domains shown)
VH: QVQLVQSGAEVKKPGASVKVSCKASGYDFINYYIHWVRQAPGQGLEWMGIIDPSGGSTSYAQKFQGRVTMTRDTSTSTVYMELSSLRSEDTAVYYCTREGIPQLLRTLDYWGQGTLVTVSS
VL: DIQMTQSPSSLSASVGDRVTITCRASQDISDSLAWYQQKPGKAPKLLIYAASSLQSGVPSRFSGSGSGTDFTLTISSLQPEDFATYYCQQSYSRLAWTFGGGTKVEIKR
B2: COVID19_R02_A12 (scFv, V domains shown)
VH: B1 VH with D28T, I30T, N31E, Y32N, Y33E, I34M, D52N, P53T, S57Y, S59N
VL: DIQMTQSPSSLSASVGDRVTITCRASQSISSWLAWYQQKPGKAPKLLIYAASSLQSGVPSRFSGSGSGTDFTLTISSLQPEDFATYYCQQSYSNPYTFGGGTKVEIKR
B3: COVID19_R02_D11 (scFv, V domains shown)
VH: B1 VH with D28T, I30T, N31E, Y32N, Y33E, I34M, D52N, G55A
VL: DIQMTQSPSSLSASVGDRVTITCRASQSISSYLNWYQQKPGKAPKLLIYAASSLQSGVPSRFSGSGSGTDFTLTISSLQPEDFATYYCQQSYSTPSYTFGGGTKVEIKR
B4: COVID19_R02_A04 (scFv, V domains shown)
VH: B1 VH with D28T, I30T, N31E, Y32N, Y33E, I34M, D52N, S54D
VL: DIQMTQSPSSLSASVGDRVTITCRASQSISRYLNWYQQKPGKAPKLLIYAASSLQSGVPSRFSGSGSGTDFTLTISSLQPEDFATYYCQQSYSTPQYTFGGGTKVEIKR
B5: COVID19_R02_A05 (scFv, V domains shown)
VH: QVQLVQSGAEVKKPGASVKVSCKASGYTFTENEMHWVRQAPGQGLEWMGMINPSGGYTNYAQEFQGRVTMTRDTSTSTVYMELSSLRSEDTAVYYCTREGIPQLLRTLDYWGQGTLVTVSS
VL: B2 VL with S30Y, S31R, D70E, S93G
B6: COVID19_R02_D07 (scFv, V domains shown)
VH: B5 VH with M50I, Y57S, N59S, E63K, I101P
VL: DIQMTQSPSSLSASVGDRVTITCRASQSISSYLNWYQQKPGKAPKLLIYHTSNLETGVPSRFSGSGSGTDFTLTISSLQPEDFATYYCQQSYSFPATTFGGGTKVEIKR
B7: COVID19_P06_G03 (scFv, V domains shown)
VH: B5 VH with M50V, I51V, N59S, E63K, T107S, L108Q
VL: not shown
B8: COVID19_R02_D03 (scFv, V domains shown)
VH: B5 VH with N32Y, M50I, E63K, L104V
VL: B2 VL
B9: COVID19_R02_F07 (scFv, V domains shown)
VH: B5 VH with M50I, P53T, E63K
VL: B2 VL with Y96L, T97H
B10: COVID19_P06_C02 (scFv, V domains shown)
VH: B5 VH with M50I, Y57S, N59S, E63K, Q103W, L104W
VL: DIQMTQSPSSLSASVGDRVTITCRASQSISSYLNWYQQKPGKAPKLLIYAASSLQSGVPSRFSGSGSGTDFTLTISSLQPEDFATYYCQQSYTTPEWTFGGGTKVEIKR
notes: also called COVID19_P06_CO2
B11: COVID19_R02_C11 (scFv, V domains shown)
VH: B1 VH with D28T, I30S, N31D, I34M, T58A
VL: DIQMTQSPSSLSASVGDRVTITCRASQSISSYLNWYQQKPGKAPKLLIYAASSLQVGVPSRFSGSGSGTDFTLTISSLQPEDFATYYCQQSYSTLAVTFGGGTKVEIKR
B12: COVID19_R02_E11 (scFv, V domains shown)
VH: B5 VH with M50I, Y57S, N59S, E63K
VL: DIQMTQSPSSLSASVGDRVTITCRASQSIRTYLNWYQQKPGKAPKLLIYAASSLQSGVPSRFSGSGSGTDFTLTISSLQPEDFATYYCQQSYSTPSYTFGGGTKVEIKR
notes: also called COVID19_C R02_E11
B13: COVID19_R02_B06 (scFv, V domains shown)
VH: B5 VH with M50V, N59S, E63K, T107H
VL: B2 VL with S31G, W32Y, A34S, G68W, N94T, Y96L
B14: COVID19_R02_F06 (scFv, V domains shown)
VH: B5 VH with M50I, S54N, Y57G, N59Y, E63K
VL: B2 VL with S28G, S30R, S31N, W32D, A34G, S91T, N94A
B15: COVID19_P06_G11 (scFv, V domains shown)
VH: QVQLVQSGAEVKKPGASVKVSCKASGNTFTGYYMHWVRQAPGQGLEWMGAIYPGGSDTSYNQKFQGRVTMTRDTSTSTVYMELSSLRSEDTAVYYCTREGIPQLAWTLDYWGQGTLVTVSS
VL: DIQMTQSPSSLSASVGDRVTITCRASQSMSSYLNWYQQKPGKAPKLLIYAASSLQSGVPSRFSGSGSGTEFTLTISSLQPEDIATYYCQQFGSFGGGTKVEIKR
B16: COVID19_R02_F08 (scFv, V domains shown)
VH: QVQLVQSGAEVKKPGASVKVSCKASGYTFGNYAINWVRQAPGQGLEWMGAIYPGNSDTTYNQKFQGRVTMTRDTSTSTVYMELSSLRSEDTAVYYCARDTVMGGMDVWGQGTLVTVSS
VL: B2 VL with S28E, S31G, W32Y, A34S, S91Y, Y92V, N94Y, Y96W
B17: COVID19_P06_G02 (scFv, V domains shown)
VH: B5 VH with E31S, N32H, E33D, M34I, H35N, N59S, E63N, Q103A
VL: B2 VL with S28G, S30R, S31N, W32D, A34G, S91T, S93T, N94T
B18: COVID19_P06_C09 (scFv, V domains shown)
VH: B5 VH with E31S, N32Y, M34I, H35N, M50V, Y57H, E63K, L105A, R106G
VL: B2 VL with S31G, W32Y, A34N, Q55E, S91G, S93T, N94T, Y96R
B19: COVID19_R02_C12 (scFv, V domains shown)
VH: QVQLVQSGAEVKKPGASVKVSCKASGYTFTSYDINWVRQAPGQGLEWMGMVDPNSGNTYYAQKFQGRFTMTRDTSTSTVYMELSSLRSEDTAVYYCTREGIPQLLGTLDYWGQGTLVTVSS
VL: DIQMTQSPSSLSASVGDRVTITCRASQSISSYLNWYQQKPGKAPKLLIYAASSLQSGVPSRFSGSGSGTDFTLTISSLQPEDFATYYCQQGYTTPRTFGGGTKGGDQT
B20: COVID19_P06_F05 (scFv, V domains shown)
VH: QVQLVQSGAEVKKPGASVKVSCKASGYTFASYDVNWVRQAPGQGLEWMGIINPRSGDANYAQKFQGRVTMTRDTSTSTVYMELSSLRSEDTAVYYCTRERHPQLLMPLDYWGQGTLVTVSS
VL: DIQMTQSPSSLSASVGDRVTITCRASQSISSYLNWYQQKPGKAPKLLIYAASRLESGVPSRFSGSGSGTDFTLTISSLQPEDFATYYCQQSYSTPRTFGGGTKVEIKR
B21: COVID19_R02_F04 (scFv, V domains shown)
VH: B1 VH with D28R, I30T, N31S, Y33E, I34V, H35N, D52N, R106W, T107A
VL: not shown

Numbering of substitutions follows the chain as printed.

In the first experiment the target is SARS-CoV-1 Receptor Binding Domain (RBD) protein (SARS-CoV-1, UniProt P59594 306-527). Briefly: SPR, scFv captured by anti-V5, RBD analyte. In general terms: Surface plasmon resonance follows binding to a sensor surface in real time, without labels.
Turning to B1, the binding result was “no binding (tested: 300 nM)”.
On to B2, for which the binding result is “no binding (tested: 300 nM)”.
Take B3: the binding result was “no binding (tested: 300 nM)”.
On the same count and under the same terms, with B4 the entry was “no binding (tested: 300 nM)”; with B5, “no binding (tested: 300 nM)”; with B6, “no binding (tested: 300 nM)”.
On the same count and under the same terms, the result for B7 reads “no binding (tested: 300 nM)”; that for B8, “no binding (tested: 300 nM)”; that for B9, “no binding (tested: 300 nM)”.
On the same count and under the same terms, with B10 the entry was “no binding (tested: 300 nM)”.
As to B11, the binding result is given as “no binding (tested: 300 nM)”.
On the same count and under the same terms, the result for B12 reads “no binding (tested: 300 nM)”; that for B13, “no binding (tested: 300 nM)”; that for B14, “no binding (tested: 300 nM)”.
Still for that read-out and setting: the result for B15 reads “no binding (tested: 300 nM)”; that for B16, “no binding (tested: 300 nM)”.
On the same count and under the same terms, the result for B17 reads “no binding (tested: 300 nM)”.
With B18, the binding result is recorded as “no binding (tested: 300 nM)”.
Same read-out and setting: with B19 the entry was “no binding (tested: 300 nM)”; with B20, “no binding (tested: 300 nM)”.

A further experiment deals with MERS Receptor Binding Domain (RBD) protein (Middle East Respiratory Syndrome (MERS) …, UniProt K9N5Q8 367-606). Briefly: SPR, scFv captured by anti-V5, RBD analyte.
As to B1, the binding result is given as “no binding (tested: 300 nM)”.
Turning to B2, the binding result is reported as “no binding (tested: 300 nM)”.
Same read-out and setting: with B3 the entry was “no binding (tested: 300 nM)”; with B4, “no binding (tested: 300 nM)”.
On to B5, for which the binding result is “no binding (tested: 300 nM)”.
Regarding B6, the binding result is recorded as “no binding (tested: 300 nM)”.
On to B7, for which the binding result is given as “no binding (tested: 300 nM)”.
With B8, the binding result is recorded as “no binding (tested: 300 nM)”.
On the same count and under the same terms, the result for B9 reads “no binding (tested: 300 nM)”.
For B10, the binding result was “no binding (tested: 300 nM)”.
Same read-out and setting: with B11 the entry was “no binding (tested: 300 nM)”; with B12, “no binding (tested: 300 nM)”; with B13, “no binding (tested: 300 nM)”.
Still for that read-out and setting: with B14 the entry was “no binding (tested: 300 nM)”; with B15, “no binding (tested: 300 nM)”; with B16, “no binding (tested: 300 nM)”.
Turning to B17, the binding result is recorded as “no binding (tested: 300 nM)”.
With B18, the binding result was “no binding (tested: 300 nM)”.
Take B19: the binding result is “no binding (tested: 300 nM)”.
Consider B20, for which the binding result is listed as “no binding (tested: 300 nM)”.

In the next experiment the target is SARS-CoV-2 Receptor Binding Domain (RBD) protein (SARS-CoV-2, UniProt P0DTC2 319-541). The experiment can be described thus: SPR, scFv captured by anti-V5, RBD analyte.
B1 yielded a Kd of 2.06 nM, a dissociation rate constant (koff) of 0.00068 s⁻¹ and an association rate constant (kon) of 330000 M⁻¹ s⁻¹.
With B2, the equilibrium dissociation constant (Kd) was determined as 46.3 nM, the dissociation rate constant (koff) is 0.0102 s⁻¹ and the kon worked out at 219000 M⁻¹ s⁻¹.
Molecule B21 showed a Kd of 6.4 nM, an off-rate (koff) of 0.00036 s⁻¹ and an association rate constant (kon) of 56000 M⁻¹ s⁻¹.
The like results for B3 were, in that order, 4.9 nM, 0.00069 s⁻¹ and 140000 M⁻¹ s⁻¹.
The molecule B4 had a dissociation constant (Kd) of 12.7 nM, a koff of 0.00069 s⁻¹ and a kon of 54400 M⁻¹ s⁻¹.
The matching figures for B6: 6.3 nM, 0.00043 s⁻¹ and 68000 M⁻¹ s⁻¹.
The matching figures for B10: 6.15 nM, 0.000438 s⁻¹ and 71200 M⁻¹ s⁻¹.
As for B11, the Kd amounted to 12.8 nM, the off-rate (koff) is 0.0011 s⁻¹ and the on-rate (kon) is 86000 M⁻¹ s⁻¹.
The matching figures for B12: 7.9 nM, 0.00079 s⁻¹ and 100000 M⁻¹ s⁻¹.
The like results for B15 were, in that order, 21.5 nM, 0.0014 s⁻¹ and 65000 M⁻¹ s⁻¹.
The matching figures for B16: 9.1 nM, 0.00071 s⁻¹ and 78000 M⁻¹ s⁻¹.
Molecule B17 displayed a dissociation constant Kd of 6.92 nM, a koff of 0.0009 s⁻¹ and a kon of 130000 M⁻¹ s⁻¹.
Take B18: the equilibrium dissociation constant (Kd) is 2.47 nM, the off-rate constant (koff) came to 0.00074 s⁻¹ and the kon worked out at 300000 M⁻¹ s⁻¹.
The like results for B19 were, in that order, 8.2 nM, 0.00059 s⁻¹ and 72000 M⁻¹ s⁻¹.
The matching figures for B20: 0.9 nM, 5.7e-05 s⁻¹ and 61900 M⁻¹ s⁻¹.

One may read the Kd as the equilibrium constant for the complex coming apart. Higher therefore signals weaker binding. For orientation: koff means a measure of how fast the partners let go of each other. The low end stands for a long-lived complex, the high end for a short-lived complex. As a reminder, the kon is the second-order rate constant of association. Higher therefore signals faster complex formation.
